Data taken from US20220056125A1.

Target: cynomolgus PAR-2 on cells (cynomolgus monkey)
Experiment: cell-based or functional assay

B1: P24E1102 (antibody, human IgG4 S228P, kappa, V domains shown)
VH: QVQLVQSGAEVKKPGSSVKVSCKASGFSLSSYAISWVRQAPGQGLEWMGVIWGNQNVYYAQKFQGRVTITADESTSTAYMELSSLRSEDTAVYYCARWKGYKDYPFDYWGQGTLVTVSS
VL: EIVLTQSPATLSLSPGERATLSCRASQNVYKWLDWYQQKPGQAPRLLIYNANTRATGIPARFSGSGSGRDFTLTISSLEPEDFAVYYCQQHHSGWTFGGGTKVEIKR
IC50 mean, calcium flux at SLIGKV EC80, Nomad line: 3.98 nM
IC50 mean, β-arrestin at SLIGKV EC80, Nomad line: 15.2 nM
